Paper PMC9482448 (Nature, 2021)

Biological target: human SMCT1 (monocarboxylate transporter of the SGLT family) (Homo sapiens (Human)., UniProt Q8N695)
Assay: cryo-EM structure

Sequence of human SMCT1 (monocarboxylate transporter of the SGLT family) (Q8N695 whole entry): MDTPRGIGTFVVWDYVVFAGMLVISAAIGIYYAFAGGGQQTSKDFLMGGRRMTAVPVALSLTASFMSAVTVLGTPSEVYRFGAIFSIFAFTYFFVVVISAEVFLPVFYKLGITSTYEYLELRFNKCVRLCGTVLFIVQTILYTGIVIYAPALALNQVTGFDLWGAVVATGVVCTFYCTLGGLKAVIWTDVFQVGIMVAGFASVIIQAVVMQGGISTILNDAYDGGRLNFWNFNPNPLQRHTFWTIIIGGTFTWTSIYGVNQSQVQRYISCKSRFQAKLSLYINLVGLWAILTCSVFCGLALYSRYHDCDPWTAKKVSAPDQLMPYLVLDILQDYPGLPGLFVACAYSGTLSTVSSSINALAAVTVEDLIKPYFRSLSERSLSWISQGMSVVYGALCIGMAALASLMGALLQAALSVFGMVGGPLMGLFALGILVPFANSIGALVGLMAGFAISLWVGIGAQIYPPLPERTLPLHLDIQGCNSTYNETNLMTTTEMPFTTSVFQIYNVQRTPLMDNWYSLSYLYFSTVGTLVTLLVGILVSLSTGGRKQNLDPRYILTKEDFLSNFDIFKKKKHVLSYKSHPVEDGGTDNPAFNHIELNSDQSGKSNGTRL

binding result: binds
B1: nanobody Nb2 (binds SMCT1) (VHH)
VHH: QVQLQESGGGLVQAGGSLRLSCAASGNISTRAGMGWYRQAPGKEREFVASINWGAITNYADSVKGRFTISRDNAKNTVYLQMNSLKPEDTAVYYCAVEYKYGPQRSDTYYYWGQGTQVTVSS
